Data taken from the DeepSol protein solubility set.

experiment: soluble on expression in E. coli; label from the status in PepcDB or PDB records

Sequence	soluble on expression in E. coli
MSSRVPILKVDDYWVVAIEETLHDQSVIQFKEELLHNITGVAGKGLVIDISALEVVDSFVTRVLIEISRLAELLGLPFVLTGIKPAVAITLTEMGLDLRGMATALNLQKGLDKLKNLARMEQR	soluble
GQDRFVYTCNECKHHVETRWHCTVCEDYDLCINCYNTKSHTHKMVKWGLGLD	soluble
MRREALKTAVLKIMIEKMELKNVTHLEETMRLNQDLYIDSVMMLQLIVYIEMDVKLCVPEDEVDPKAFLTVGSLLDFMEELEPLQEVNVNN	not soluble
SLPSYVVPEEPLLSAPTVAELTQAVNGAVVSGDVALREREVMGVLAAGMTADHVLERLTDGMAVITPGDRSDVVLAVASAHAAEGFPSLSCIVLNGGFQLHPAIAALVSGLRLRLPVIATALGTYDTASAAASARGLVTATSQRKIDTALELMDRHVDVAGLLAQLTI	soluble
MNDHLKRGNLLWEGSRMFLPEHKQSLLERKRLKQKLQKPILDPDKLEEMNQTLCAAMEFAQDITVSCFQDGEIVCCTGKICRYEEFEKAVWIKGDEDQLYKLKLDQVLDI	not soluble
RLSLRAKAKEINLENLEEFVSEVKARNLKAYLAVNSTVNEDRLEEAGNVINAAAKAGVDAVIAWDPAVILKARKSGLRIHISTQANTTNHETAEFYRALGAERIVLSRELSLEEIREIRQRSEVEVETFVHGAMCMAVSGRCHLSAYVLGKSGNCGECTQPCRWEWELHGENNLVMESRGKYLLSAKDLCMIEHIPALLGARIDSFKVEGRLRDPGYLEVVSRCYREAIDACKEGTYTREKVDSWLSKLSSVYNRGFSTGFYFGIPGLEGFSPEKSMNASEKKRRAAGIVENYYPRQHAAAIKLLEEGLEIGNEILIEGSTTYLKQRVTSLIKNGMSLQKAEKGDEVGLAVDGTVRRNDRIFI	not soluble
MDSDEVRKRKEYAERKVKERHAALRKEAEEKRKHTVEHRERVQSVLKREQIALQKRMQQLNEDEERKKVTLAKQHEVSSRIAAITKSPKSFAFGSSTPRTLAYLDNLPKSEQQYDKKLRPLDQGPSQTTSPTSTTSNTTKMGRLSMTPQRAPPASHRPAPAMASMTTSMYVTSSAPSTRQAKSISKPAAVTTKKVGSMMTQSVYTPTSRPATSSRLTMKQPARGASTSAARPNTATPSSSNNRRSMDQRKPPMPRKLPFGKPEAARKSASPVAAQEPTAPVVVVAPVEAIPEVPAVQEEVLTVEEPAAPAREAVVEEAPEAVVEQEEITVAPEAVVAEEQQIAPEATPTVIEEHHNEVTVAPEAPEIQEPSEPATEPIPEPNEPKDEEIQRNEEMFHEDTSESHLESSTNTSLADELISIGIDQSQEILPSKPEILELHYPLVEEQNAVIAPVGAGEGSGVNDLIGVFGNDFINQNQPPPQQQQQQQRLVQFDEDTDSGKASPTSSETSSTTDEVTPRGAIEEEAAAEKITAPRVLPIVRSAEDIARKEKEIRESEERKSRLAAILAKSRGMASPMTNTLPPTADDIKGRCSHLHPLKRLPKRHRMSLEEQMMCSPVSLR	not soluble
MNLTVSHLDKLRLPLLHKIYKENYPSGKPKGKEEIIVIEGDKKILGAMRIKTYEECHFLTGMMIIKERRGESLGSQLLFKLNEFLSLEHCYCFCEPQLSEFYLKNDFIHIDKKNIPHVLKSKHDRYTNTGKELDILLYKKTNN	not soluble
MSLSGETLYQQLVNEWMELIRNGTVRPGERLPSVRKACAMHKVSPSTILQTYRMLEDRGLIEARPQSGFYVKSAASLPLPRMRRQSAAHHTGEVVDQIEAVMGVQSQADFIDLALASPRGSDFYPTTRFKHIMGRLLRQHPELTTDYPFPPGSERLRRQIAQRAVNWGCVLAADELVISNGCTEALQLALRAVCKPGDTVGVESPTYFALLPMLKDLGLAVIEIPTHPTSGLALDALELLLSEKRLNAVVAMPTVHNPLGSTMPPEAKRRLAQLVNDYQVPLIEDVPHAELFYGASTPDAVKAYDRDGWVLLCSSYSKTLAPGFRIGWIAPGRFLSEVRRLKFSSSLGQPALLEETLAEYLESGGYDHHLRLLRRHFISQMEKLRGAVAQHFPDGTRATLPSGGCLLWVELPSHADTMQLFRAALAERITVVPGAMYSAKGRYRNCLRLSCCYPWNEAYQRALIRVGELAGELAEGHEGHHHHHH	soluble
MMEGVRRAVAKFLRGGGVYEKAVDAFVKDLQRELIKADVNVKLVLNVTRRIKERALKEEPPPGVTRRDWMIKIVYEELVKLFGGDQEPQVDPPKTPWIVLLVGVQGSGKTTTAGKLAYYYVRRGYKVGLVSSDTHRPGAYEQLKRLAEEAGAMFYGEREGDPAEIARRGLEDLLSRGAEIVIVDTAGRHGHGEEARLLDEMKAIASKVRPDEVALVIDASIGQKAMGLAERFHKSTPIGSIIVTKMDGTARGGGALTAAAVTGARIKFIGTGETLGELEPFAPRRFVARILGMGDLESLLERIKSLEEAGELDRAAEDVLKGRITMRTIYRQLRAMRKLGPLGKVLQMLPGASMLASIDEGALKLGEEKMKRWMAIIESMTYEELDRPEIIDKRRMRRIAIGSGTSVDDVRELLVYYKNLKTMMKKLKRDKRLLRRLGMEL	soluble
MSATEKDKTPLLGVSQPISLAHPDSKDIAQTTLLIETLKKFGSYEPKEETEQRMEVLRNLNRLVKEWVKNVTAMKIPNGEGVNAGGKLFTFGSYRLGVHSSGADIDTLAVVPRHIDRSDFFTSFKEMLNNDPNVTELHGVEEAFVPVMKLKYSGVELDILFARLALKEVPDTQELSDDNLLRNLDQESVRSLNGCRVAEQLLKLVPRQKEFCVTLRAIKLWAKNHGIYSNSMGFFGGITWAILVARACQLYPNASPSRLVHRMFFIFSTWTWPHPVVLNEMNNDRNDIPTLCELVWDPRRKNTDRFHVMPIITPAFPEQNSTHNVTRSTATVIKNEICEALEICRDISEGKSKWTALFEEVNFFSRYKHFIALIMAAPNEEEELNYGGFLESRIRLLVQSLERNQDIIIAHNDPNKHKPSPNAKFDVNPENKRVTVWFIGLEFAEHAKTLDLTNEIQRFKTNVELQASNVKGIGPNCQVQIDMFYVKRNSLIQVISAADLRRGRRWKKVVPIATNTSVSSSTPRSVVRTTSTSSVPTTPTGLAAPKTPLSASVSATNEPDSTTNGTPLSRKRSMDEESSTTVTSQISDESVPKKKTRDDTLEENRVSMVVEVSNVVVEQRTKVVQEIVDLQADNGLNTSNGLEASEQKMEVPQSV	not soluble
MALLQISEPGLSAAPHQRRLAAGIDLGTTNSLVATVRSGQAETLPDHEGRHLLPSVVHYQQQGHTVGYAARDNAAQDTANTISSVKRMMGRSLADIQTRYPHLPYRFKASVNGLPMIDTAAGLLNPVRVSADILKALAARASESLSGELDGVVITVPAYFDDAQRQGTKDAARLAGLHVLRLLNEPTAAAIAYGLDSGKEGVIAVYDLGGGTFDISILRLSRGVFEVLATGGDSALGGDDFDHLLADYIREQAGIADRSDNRVQRELLDAAIAAKIALSDADTVRVNVAGWQGEITREQFNDLISALVKRTLLACRRALKDAGVEPQDVLEVVMVGGSTRVPLVRERVGEFFGRTPLTAIDPDKVVAIGAAIQADILVGNKPDSEMLLLDVIPLSLGLETMGGLVEKVIPRNTTIPVARAQDFTTFKDGQTAMSIHVMQGERELVQDCRSLARFALRGIPPLPAGGAHIRVTFQVDADGLLSVTAMEKSTGVEASIQVKPSYGLTDGEIASMIKDSMSFAEQDVKARMLAEQKVEAARVLESLTGALTADAALLSAAERQCIDDAAAHLSAVAQGDDVDAIEQAIKNVDKQTQEFAARRMDQSVRRALKGHSVDEV	not soluble
MNRTLYTVLFHLGLPLVALRLWLRARKAPAYRQRIGERFASGLPAMQRDGIWVHAVSVGESIAAAPMIRALLVQYPQLPITVTCMTPTGSERIKALFANEPRIQYCYLPYDLPWAAGRFLDHVQPQLGIIMETELWPNHIHQCAKRAIPVVLANARLSERSARGYARFARLTQPMLAEMAWFAVQTEVEAQRFRDLGARAECVVVTGSIKFDLNIDPQLLERAAQLREQWQATQRPVWIAASTHAGEDESVLSAHRTLLASHPDALLILVPRHPERFDSVHALCQQQGFKTVRRSSAQAVTPDVAVLMGDTMGELLFLYALVDIAFVGGSLVPNGGHNLLEPAALAKPVLSGPHLFNFLEIAAMLRTAGALQEVSDATALATAVQRLIDQPQQARSMADAGLAVMKANQGALQRLLDGIERLMAKRRVAEDAERPERHAHAERRHDSAAALEHHHHHH	not soluble
MAAVKDSCGKGEMATGNGRRLHLGIPEAVFVEDVDSFMKQPGNETADTVLKKLDEQYQKYKFMELNLAQKKRRLKGQIPEIKQTLEILKYMQKKKESTNSMETRFLLADNLYCKASVPPTDKVCLWLGANVMLEYDIDEAQALLEKNLSTATKNLDSLEEDLDFLRDQFTTTEVNMARVYNWDVKRRNKDDSTKNKA	not soluble
